B1: Autophagy-related protein 16-1 (Mus musculus), Q8C0J2 (parent)
chain: MSSGLRAADFPRWKRHIAEELRRRDRLQRQAFEEIILQYTKLLEKSDLHSVLTQKLQAEKHDMPNRHEISPGHDGAWNDSQLQEMAQLRIKHQEELTELHKKRGELAQLVIDLNNQMQQKDKEIQMNEAKISEYLQTISDLETNCLDLRTKLQDLEVANQTLKDEYDALQITFTALEEKLRKTTEENQELVTRWMAEKAQEANRLNAENEKDSRRRQARLQKELAEAAKEPLPVEQDDDIEVIVDETSDHTEETSPVRAVSRAATKRLSQPAGGLLDSITNIFGRRSVSSIPVPQDIMDTHPASGKDVRVPTTASYVFDAHDGEVNAVQFSPGSRLLATGGMDRRVKLWEAFGDKCEFKGSLSGSNAGITSIEFDSAGAYLLAASNDFASRIWTVDDYRLRHTLTGHSGKVLSAKFLLDNARIVSGSHDRTLKLWDLRSKVCIKTVFAGSSCNDIVCTEQCVMSGHFDKKIRFWDIRSESVVREMELLGKITALDLNPERTELLSCSRDDLLKVIDLRTNAVKQTFSAPGFKCGSDWTRVVFSPDGSYVAAGSAEGSLYVWSVLTGKVEKVLSKQHSSSINAVAWAPSGLHVVSVDKGSRAVLWAQP

The values below come from IntAct's records for PubMed 24553140.

The experiment covers variants of B1. The note with it: with mlp3a_mouse Map1lc3a.
For the variant T300A, the “effect of a mutation on the interaction” value was “decreasing interaction”.
